In the DeepSol protein solubility set:

Experiment: soluble on expression in E. coli; label from the status in PepcDB or PDB records

| Sequence | soluble on expression in E. coli |
| --- | --- |
| MGSDKIHHHHHHMQPFSSYTVREVIKGGNSMELRSFGNTDIQVSPLGFGAGHIGSDDLSDQEASYILHQALDTGIRLFDTARGYGLSEKRLGQFLKQRRHDVVLSTKVGYDVPRTEDWTFQAVAGGIDQALLTMQTDFIDIVHLHSCSKEILAQDDVIEALERAKQAGKVRLIAYSGDREDLDYAITTGRFDSFQTSVNLYDQRALMDSVPLIHQQQKGIIAKRPIANAPWRFASRPVGQYVEPYWERAQQLDFPLEEASWLETALRFTVFEPGVTSAIIGTANPEHLVQNIRLLEKGALPAERVADLKRRFQEQDENWLQQT | not soluble |
| MGSDKIHHHHHHMDQEKTPLLDALKGYVEENVIPFHVPGHKQGRGNPELRKYIGSKVLKMDVNGMKELDYIGNPSGVIAEAQHLCAEAFGAEQAYFLVNGTSSGVQAMIMSACNPGNEIIIPRNAHKSTIGAIILSGAIPVYVQPQVNKVLGIATGVSAESIQKAIEEHPQAKAVFIINPSYYGIHSDLKSIVEISHQANMTVLADEAHGAHLYFHPEFSLNAIEAGADMSAVSLHKTGGAMTQSSVLLHQGDRISVDRVKQVLQLSYTSSASYILMLSIDVARKQLATRGQLLLNKTLALARQARQELNDIEDIYAFGKELIGSPGCADFDETKLGIHVRKLGLTGYQIERILRERYKIQIEFSDIYNALAIVSLGDRRENLRKLVAAFREIADERETKDASKWFNIPFCPEMIVTPRDAFYSPKRIVPLELSSGEISGEMIMAYPPGIPVICMGERITQEIIEYIQLLQVEGCELQGATDAGINHIKVLGSALPQASVSKSVSPSRSAYQEIPVYLSP | not soluble |
| MEDIKIKEIFENIYEVDLGDGLKRIATKSIVKGKKVYDEKIIKIGDEEYRIWNPNKSKLAAAIIKGLKVMPIKRDSKILYLGASAGTTPSHVADIADKGIVYAIEYAPRIMRELLDACAERENIIPILGDANKPQEYANIVEKVDVIYEDVAQPNQAEILIKNAKWFLKKGGYGMIAIKARSIDVTKDPKEIFKEQKEILEAGGFKIVDEVDIEPFEKDHVMFVGIWEGK | soluble |
| MGSDKIHHHHHHMKVEITVSEDRMQAYVTLRKEGSSELPLTKEELLNALLSAGINHGIKEEIIEDLARSPVYNTPVLVAEGTPPVDGEDGRVELLKKIEFSSHEGEKIDLREIPAKQRVIVRKGETIARIIPPTPGKEGMDVFGNPVKPKPGRVPEYHLGYNVATKNNEIIATKSGILVIEPNGTIHVYDTLEVDNVDYSTGNIDFPGKVVVKGDVKPDFVVKAQEDITVKGVIEAATVISFNGSITAGGIKGRGKAFVKAKKTVKAVFIESAEVEAEEVQVEKNIENSAVKAINVVVSGKGGSIRGGITIAQVKVETYFLGSPIGVKTRVEVGVDPEINEKIKLLSAQISLDRENVQKLTKLLVELRKLQGMLKDKFPPDKEALLNKVNNTLINLRDSIQKNEGELKRLKEIAEEMAKNASVVVKEVVYSGVEIVMFERVFRVEKELAKAVFYYRDGEIRVGGYSA | not soluble |
| VYGDIWGFETDRYFTKDDFNADGSYKEGIASQKKLEQDGFVYGPGDIKFKDLNNDKEINGGEGTVKDHGDLKVIGNTTPRYQYGFRLGGEWKGIDIDMFFQGVGKCDAWTQSAFVMPMMRGADAIYANQANYWTDENPDPNADFPRMWPGNAGKGTVSVLDLGNHNFYPQSKYLVNMAYLRFKNLTIGYTLPKDWTRKVYMDKVRVYFSANNICELINKSNAPVDPEVNTSEAIANGGSSDYGNGTWGRVDPMYRTVSFGLQVTF | not soluble |
| MRYPEHADPVITLTAGPVNAYPEVLRGLGRTVLYDYDPAFQLLYEKVVDKAQKAMRLSNKPVILHGEPVLGLEAAAASLISPDDVVLNLASGVYGKGFGYWAKRYSPHLLEIEVPYNEAIDPQAVADMLKAHPEITVVSVCHHDTPSGTINPIDAIGALVSAHGAYLIVDAVSSFGGMKTHPEDCKADIYVTGPNKCLGAPPGLTMMGVSERAWAKMKANPLAPRASMLSIVDWENAWSRDKPFPFTPSVSEINGLDVALDLYLNEGPEAVWARHALTAKAMRAGVTAMGLSVWAASDSIASPTTTAVRTPDGVDEKALRQAARARYGVVFSSGRGETLGKLTRIGHMGPTAQPIYAIAALTALGGAMNAAGRKLAIGKGIEAALAVIDADA | soluble |
| MEVVKMPFGVPGWKWKVGKFGYTVENEPNYEEIKAKAKEVLSRTTKGIAWRGHCGSLHIPLVFEGQIIGELWEDADPKEVEIGAYWFGKWGIKVQLVKDGRVIGFIWLA | soluble |
| MAHHHHHHMSSVINYEKFEKIDISSSDDDNKKKLNPHLTKLDNKDKVVIGPNGLTILKNNNDEKIKHDKYNNTSKNVEEIKDKNDEYKTIYNETNNEILNNKNDNIHVQNMNNYVADDKKYKDMFINGAVVPYEYIWNQSIHYINAFICLPLNCKAKNLIVDIKEDKLIVKIKNYKCGIIYNNNNNNNKTNQHNTQSNSFHDNVEILVDKKFPFKINTDEDTQIWEIKNMQINWYTLFNLSNEINNQNVHYLFEDYNMLDKQETFLYISVKKINEIENAYIWWSTLFKNEHPIKIENLPSRSSTNKAKKTMNSFKTAWDEAHEIFKKNISMKQLPFRIDSS | soluble |
| MEPTGMMVAAPTASLPEAIGGERNWDYRYTWIRDTAYVIEALATIGYKREAVSFLYDMMDVISRENKIRTIYSIDNSDDFVERELDFEGYRGSRPVRIGNKAVDQLQIDQYGSIVRAIHAMEKAGGVVNSYLWDFVEEMMAKIEYLWKYPDSSIWEFRTEPKQYVYSKVMSWAAFDSAITMARDLGLTAPIKKWKGIQDEIWNDVMTKGFDPQTNSFVQYYGSKNVDASLLRLPILGFIPANDERFIGTMKRIEDELMVDGYLFRRYREDDGLKGDEGSFLMLTFWYIEDLILMKRLKAARAALESIIEKANHLGLYSEEIDEKTGDFLGNFPQALSHLGIIRVAPKLEEAFLKRVSKINELEHHHHHH | not soluble |
| MTLPSSCAPLTGISRARLPAWALPDGWPTQANGEPLLADLAFRDGRIAALTPTDQPTPGLWDLAGALTLPGLVEPHAHLDKTFTIERCRPAQAGLLPAIHAMHEDRRHWSRADIQRRASAALARAAANGVTHLRSHIDWFNADAPDAWQEIARLDTVGITLERVALVPLPLFRELAQAEAIARTVANSGERCLLGGFIHSSNWDATAMENLLYSAARWDLDLDLHIDEELSEVSQGLTWLADHLSRHPFPGHICCSHGCALAAGSDEQAAPILRQLAAHGVTLIALPMTNLLLQDATFGRTPRQRGITLLHEAQAAGVATLLGCDNVQDAFCPAGSYDPLDTLACGLFSAQLSDLFDQQSRLICDRAALTGSPADAAPFAVGAAASVVIFPGSDRFTWPLNSAARLVVNHGRLTHRRVWQEEMAHES | not soluble |
| MTIRMIPHPIFSSPTKRRREKPDPPARAGAAQPSGPARMTPQQQTEWQQRLIALLESQPPDDDGAHDLSHLHRVWAVARTLLAHYPDADSIVVMAGSYLHDLVNLPKNHPQRQLASHWSAERARQLLADSGLTEAQLDNLAHAIEAHSYSAAIPPRTLEARIVQDADRMDALGPVGLARMFYVSGRMGRALAHPLDPLAEHRGRDDQAWAIDHIDVKLAKLPGMMQTEAGRAMAERKLEWLFHFRDEFCRDWMARLEHHHHHH | soluble |
| MAHHHHHHMYGDKGPPKGYSVPRFDTNASKRCQTCSSTVHWTFECPLKNSATLSAKKSAATTVKLSPSQMLRYGIKQKSANFVSEPTEREVFDAELRELRSVLTAEVRQELKAKKSAAHKSGNDCKKHEAPLPSAAPKKEPPSDSVTMKTERTEEEE | soluble |
| MGSDKIHHHHHHMSTNALRGKAAIVGFGDSYCKRGEVKSAMRLAQEATRRALDDAGLNKDEIDGLLTGRAPMSDQRHQWNNIFAAYNKITPRYASEITIHAAGMNSMLKHAALAVTSGVARFVLCVGADAAASQPTVRAQIGGMDADPEFEQPYEPIIPTIYAQMACRLMHEYGMSEEDFSAVAVQCQEWAVHHPYAAKGHKGLVTIDDVMRSPMIASPLRLWHCAPWGPPGTAGAVIVTDADTARSMSDRPIYLLGAGECQTHEYLSDRMALRSSILPLGDLPNITSTGCRVAGDAAFSMAGLRPDDINVVQTASQFAHVELQVLAELGFTDLRAAGEFVRSGATGPQGALPTNTNGGWLSFGQPGVSCVMDSISETIRQLRGEALGLQVQDAHIGLVHGNGGMQACHSVAILGREP | not soluble |
| GKLHEPYEIIVIDVPSEYQGNVTQLLATRKGLMQSMSTTPGSDWIRMEFRIPARGLIGFRTQFMTETRGTGIANSYSDGMDVWAGEIKGRAHGSLVADRSGQITAYALTQLADRGSFFVEPGTETYEGVV | not soluble |
| MLFKRPDTETLYFALVNKDPAYEGVAYVCVTSTKIFCRFTCTARKPKIENCRFRETITECLEAGFRPCKRCKPMLSYGTPDGTVTALLTALENEPARRWREEDVVALGHDPSTVRRSFKRRFGMSFLEIARLRRVGDAAESLASGEAVIGAQIDAGYESGSGFRSAINQLFGTSPAAMKGRGFLKGDWIDTPIGPMLAVADDHALHLLEFADRPALPAELKRLKARTGADMVLGRTAVTGQIAAELAAYFAGRSGSFETRLAGHGTPFERDVWRNLREIPAGEIVSYSSLATAMERPTAVRAVARANGANQLAIVVPCHRVLGADGSLTGYGGGLWRKKWLIEHERRMARGLEHHHHHH | soluble |
| LCPDAVAGIAVAAPHIYVEDITVANIAVALRAYRETTLRDRLARYHDDVDSTFASWTDTWLDPAFRQWNIEAYLPAITCPMLAMQGVDDEYGTLEQIRGIRRLAPQTRLLEIQDCGHSPHKDQPELVTRALAGFV | not soluble |
| MSLGQKVVAMLDFLLAYSDYSKDFRPLIIDQPEDNLDNRYIYRHLVQQFRDVKAQRQIILATHNATIVTNSMTDQVVIMESDGVNGWIESQGYVSEKYIKNHIINQLEGGKDSFKHKMSIYETALSEGHHHHHH | not soluble |
| MGSDKIHHHHHHAKNVLKAWLVDNTVTTDDKTDKIFQLETTRSIDKEIILDRMVAKNPGVRRETMALGIELMEEVVAEALMNGESVNTGLFRGVAQFRGVAKQNAWDAATNSIYVSLTQGKALREAIKDTRVDVLGERPTKFYIGSGQDATTRATDFSATAGRNFTLFGKNLTVAGTDPSVGVTLASAATGTVTKIDNDMIVLNEPSRLIILLPASLEDGEYMLTVTTQYRGGGGALLKTPRSTSHTIYIGGAPETGGSTGPPGDSDGDLNENPLG | not soluble |
| MAQKKGRESDSVAEGLRPAEEGDVLELDECWTYVRERANKRWLWVALCRRTRQVVAFVIGDRSARTCARLWSRIPEEYRQGRSFSDFWKSYRPVFAGDPSHRQVGKSSGEMAHVERFFGRLRQKLARYVRRTRAASESERMLHLTTKLFVEWYNEAIT | not soluble |
| QTEVQKLTNAKAIITYLAEKFPLCFVLEGEAKPLKIGLFQDLAEALQDDERVSKTQLRQALRQYTSNWRYLYGCREGAVRVDLQGNPAGVLDAEHVAHAAQQLAEAKARFAEKRKQKLQLKKHNKKSIRVNLRIKTLKKRV | not soluble |
| MIVGIGIDIIELNRIEKMLDGKLKFMERILTENERNVAKGLKGSRLTEFVAGRFAAKEAYSKAVGTGIGKEVSFLDIEVRNDDRGKPILITSTEHIVHLSISHSKEFAVAQVVLESSSS | not soluble |
| MGSDKIHHHHHHMMFESHSQIISAAEELLTKRYGGSQSLTDWDRLAGSGAAVVLRARVASSPFFPNRSVVVKYIPPTGRLIDESTLMREVVSYQFTTSLNADVRPGPVLLAYDVEQHLLVISDSGDGDTFAELLERHENDVRIGILRNLGEAIGKLHVGTAAKEQDFNILLHRMLVKHPEVQPMHGFRERLLRLNIGVGITLVEQAGITVPDVVKSFAQEAMRRLVTGQHRAFTPFDLSPDNIIVADRTEFLDYEWAGFRDAAFDVASVIAGFPQYLFARPVSDAEADIFIESWVQQVGDMWPNVRNTPRLHARILTALIGWAFSSVTMMYLGSSSEAYEELFHKIGTEKATAFDVEEIVKEIAATGDILLGTFVPETSEDADLVALLRQDLYETFEALNRFAQRESDTRFPVVADFAQAVVDLLTDDESTE | not soluble |
